B1: bCD38 (bovine CD38/NAD+glycohydrolase) (Bos taurus) (protein)
chain: YKWHYSGLNRWHGAGSTADFQKIIQERCDTYTQTIRPGSRSRNCQAIRQAFMSAFISKDPCKATKEDYNSLINLAPPTVPCGQQVFWSKTKELAHEYAKRRRLMTLEDTLLGYLADGLRWCGEPGSSDLNIWSCPDWRKDCRTNYLSVFWEVLSERFAESACNTVRVVLNGSLENAFDSMSIFGRVEAPNLRPQVELEAWLVHDTGKPPSDSCSGSSIRKLKSILDGRNVKFRCMDNLSRDQFLQRS
notes: soluble ecto-domain residues 32-278 (first 31 residues removed), alpha-factor secretion signal, Pichia pastoris GS115 or X33, mono-N-glycosylated at Asn201, back-to-back homodimer in crystal
B2: bCD38 (bovine CD38/NAD+glycohydrolase) (Bos taurus; E218Q) (protein)
chain: YKWHYSGLNRWHGAGSTADFQKIIQERCDTYTQTIRPGSRSRNCQAIRQAFMSAFISKDPCKATKEDYNSLINLAPPTVPCGQQVFWSKTKELAHEYAKRRRLMTLEDTLLGYLADGLRWCGEPGSSDLNIWSCPDWRKDCRTNYLSVFWEVLSERFAESACNTVRVVLNGSLENAFDSMSIFGRVQAPNLRPQVELEAWLVHDTGKPPSDSCSGSSIRKLKSILDGRNVKFRCMDNLSRDQFLQRS
notes: as for B1
B3: bCD38 (bovine CD38/NAD+glycohydrolase) (Bos taurus; R216A) (protein)
chain: YKWHYSGLNRWHGAGSTADFQKIIQERCDTYTQTIRPGSRSRNCQAIRQAFMSAFISKDPCKATKEDYNSLINLAPPTVPCGQQVFWSKTKELAHEYAKRRRLMTLEDTLLGYLADGLRWCGEPGSSDLNIWSCPDWRKDCRTNYLSVFWEVLSERFAESACNTVRVVLNGSLENAFDSMSIFGAVEAPNLRPQVELEAWLVHDTGKPPSDSCSGSSIRKLKSILDGRNVKFRCMDNLSRDQFLQRS
notes: as for B1
B4: bCD38 (bovine CD38/NAD+glycohydrolase) (Bos taurus; K120A) (protein)
chain: YKWHYSGLNRWHGAGSTADFQKIIQERCDTYTQTIRPGSRSRNCQAIRQAFMSAFISKDPCKATKEDYNSLINLAPPTVPCGQQVFWSATKELAHEYAKRRRLMTLEDTLLGYLADGLRWCGEPGSSDLNIWSCPDWRKDCRTNYLSVFWEVLSERFAESACNTVRVVLNGSLENAFDSMSIFGRVEAPNLRPQVELEAWLVHDTGKPPSDSCSGSSIRKLKSILDGRNVKFRCMDNLSRDQFLQRS
notes: as for B1
B5: bCD38 (bovine CD38/NAD+glycohydrolase) (Bos taurus; W168A) (protein)
chain: YKWHYSGLNRWHGAGSTADFQKIIQERCDTYTQTIRPGSRSRNCQAIRQAFMSAFISKDPCKATKEDYNSLINLAPPTVPCGQQVFWSKTKELAHEYAKRRRLMTLEDTLLGYLADGLRWCGEPGSSDLNIWSCPDARKDCRTNYLSVFWEVLSERFAESACNTVRVVLNGSLENAFDSMSIFGRVEAPNLRPQVELEAWLVHDTGKPPSDSCSGSSIRKLKSILDGRNVKFRCMDNLSRDQFLQRS
notes: as for B1
B6: bCD38 (bovine CD38/NAD+glycohydrolase) (Bos taurus; S185A) (protein)
chain: YKWHYSGLNRWHGAGSTADFQKIIQERCDTYTQTIRPGSRSRNCQAIRQAFMSAFISKDPCKATKEDYNSLINLAPPTVPCGQQVFWSKTKELAHEYAKRRRLMTLEDTLLGYLADGLRWCGEPGSSDLNIWSCPDWRKDCRTNYLSVFWEVLAERFAESACNTVRVVLNGSLENAFDSMSIFGRVEAPNLRPQVELEAWLVHDTGKPPSDSCSGSSIRKLKSILDGRNVKFRCMDNLSRDQFLQRS
notes: as for B1

The values below come from paper PMC3329556, “Insights into the Mechanism of Bovine CD38/NAD+Glycohydrolase from the X-Ray Structures of Its Michaelis Complex and Covalently-Trapped Intermediates” (PLoS ONE, 2012).

Substrate in the data set: NC(=O)c1ccc[n+]([C@@H]2O[C@H](COP(=O)(O)OP(=O)(O)OC[C@H]3O[C@@H](n4cnc5c(N)ncnc54)[C@H](O)[C@@H]3O)[C@@H](O)[C@H]2O)c1
Nature of the data set: radiometric HPLC assay, initial rates, Michaelis-Menten fit. Format: biochemical, Bos taurus. The conditions noted are these: 10 mM potassium phosphate pH 7.4, 37°C, 14C-labelled NAD+ tracer. An excerpt: radiometric HPLC assay, initial rates, Michaelis-Menten fit on bCD38 (bovine CD38/NAD+glycohydrolase)
The Km is the concentration of substrate that gives half-maximal velocity. As a reminder, the kcat is the maximal rate divided by the concentration of active sites. For orientation: kcat/Km means the turnover number divided by the Michaelis constant. Turning to B1, the Km worked out at 17.1 ± 0.3 µM, the turnover number (kcat) turned out to be 57.9 ± 1.9 s⁻¹ and the catalytic efficiency (kcat/Km) stood at 3.38e+06 ± 130000 M⁻¹ s⁻¹.

Turning to B2, the Km came out at 24.7 ± 5.7 µM, the kcat was 0.03 ± 0.002 s⁻¹ and the kcat/Km turned out to be 1210 ± 300 M⁻¹ s⁻¹.

With B3, the Km is 22.9 ± 3.4 µM, the turnover number (kcat) came out at 25.4 ± 1.1 s⁻¹ and the catalytic efficiency (kcat/Km) is 1.1e+06 ± 170000 M⁻¹ s⁻¹.

B4: the Michaelis-Menten constant (Km) worked out at 27.7 ± 3.4 µM, the turnover number (kcat) was found to be 47.1 ± 2.1 s⁻¹ and the kcat/Km was 1.7e+06 ± 220000 M⁻¹ s⁻¹.

Consider B5, for which the Km worked out at 24.6 ± 4.2 µM, the kcat was 19.6 ± 0.9 s⁻¹ and the kcat/Km was 800000 ± 140000 M⁻¹ s⁻¹.

With B6, the Michaelis-Menten constant (Km) worked out at 18.7 ± 2.8 µM, the turnover number (kcat) came to 38.2 ± 1.3 s⁻¹ and the catalytic efficiency (kcat/Km) came out at 2.04e+06 ± 310000 M⁻¹ s⁻¹.
